Data taken from PMC2950225.

Molecular target: T1, heat shock factor 1 (human (endogenous in HepG2)), Q00613
T1 chain: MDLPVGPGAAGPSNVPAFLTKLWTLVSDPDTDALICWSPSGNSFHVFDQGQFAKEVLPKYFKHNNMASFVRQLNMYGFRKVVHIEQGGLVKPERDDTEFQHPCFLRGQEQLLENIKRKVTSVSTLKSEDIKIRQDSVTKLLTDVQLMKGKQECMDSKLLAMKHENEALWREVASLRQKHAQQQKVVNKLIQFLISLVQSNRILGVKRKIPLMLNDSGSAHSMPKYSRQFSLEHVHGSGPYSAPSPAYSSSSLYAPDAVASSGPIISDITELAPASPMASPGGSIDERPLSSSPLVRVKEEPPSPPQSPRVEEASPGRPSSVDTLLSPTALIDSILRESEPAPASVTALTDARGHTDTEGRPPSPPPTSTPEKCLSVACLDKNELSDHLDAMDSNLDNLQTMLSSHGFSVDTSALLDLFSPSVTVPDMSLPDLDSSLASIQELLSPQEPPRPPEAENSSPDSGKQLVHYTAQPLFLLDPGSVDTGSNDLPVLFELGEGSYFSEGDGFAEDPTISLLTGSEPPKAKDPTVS
Assay: cross-linking
Conditions: remark: other sources report otherwise

B1: heat shock factor 1, Q00613 1-529 (natural protein)
chain: T1 chain
Question: Which stoichiometry N does the source give for B1 here?
Answer: 3
